Columns and labels:
Experiment in all cases: cross-linking
[1] = biological target: CA P207C/T216C in isolated HIV-1 cores (R9.P207C/T216C) (HIV-1)
[2] = biological target: CA A14C/E45C in isolated HIV-1 cores (R9.A14C/E45C) (HIV-1)
[3] = biological target: HIV-1 CA P207C/T216C, assembled into tubes (HIV-1)
[4] = biological target: HIV-1 CA A14C/E45C, assembled into tubes (HIV-1)

## CA P207C/T216C in isolated HIV-1 cores (R9.P207C/T216C) (natural protein)
[1]
  stoichiometry N: 3

## CA A14C/E45C in isolated HIV-1 cores (R9.A14C/E45C) (natural protein)
[2]
  stoichiometry N: 6

## HIV-1 CA P207C/T216C, assembled into tubes (natural protein)
[3]
  stoichiometry N: 3

## HIV-1 CA A14C/E45C, assembled into tubes (natural protein)
[4]
  stoichiometry N: 6

Source: article PMC4506781
